The chains are these.
B1: Hairpin Ribozyme (parent)
chain: GUCCUCUUUCACGUGCGCGUGAAAGAGAGAAGUGAACCAGAGAAACACACGUUGUGGUAUAUUACCUGGUA

The series covers variants of B1. The experiment in a line: self-cleavage, relative activity (ratio to wild type); higher = more cleavage; co-transcriptional.
As to GUCCUCUUUCACGUGCGCGUGGAAGAGAGAAGUGAACCAGAGAAACACACGGUGUGGUAUAUUACCUGGUA [A22G U52G], the self-cleavage was 0.692. The same measure for GUCCUCUUUCACGUGCGCGUGGAAGAGAGAAGUGAACCAGAGAAACACACGCUGUGGUAUAUUACCUGGUA [A22G U52C]: 0.791. In the case of GUCCUCUUUCACGUGCGCGUGUAAGAGAGAAGUGAACCAGAGAAACACACGUUGUGAUAUAUUACCUGGUA [A22U G57A] it was 0.121. As to GUCCUCUUUCACGUGCGCGUGUAAGAGAGAAGUGAACCAGAGAAACACACGUUGUGCUAUAUUACCUGGUA [A22U G57C], the self-cleavage was found to be 0.175. In the case of GUCCUCUUUCACGUGCGCGUGUAAGCGAGAAGUGAACCAGAGAAACACACGUUGUGGUAUAUUACCUGGUA [A22U A26C] it was 0.479; in that of GUCCUCUUUCACGUGCGCGUGUAAGUGAGAAGUGAACCAGAGAAACACACGUUGUGGUAUAUUACCUGGUA [A22U A26U], 0.907.

GUCCUCUUUCACGUGCGCGUGUCAGAGAGAAGUGAACCAGAGAAACACACGUUGUGGUAUAUUACCUGGUA [A22U A23C]: the self-cleavage was determined as 0.733. In the case of GUCCUCUUUCACGUGCGCGUGUGAGAGAGAAGUGAACCAGAGAAACACACGUUGUGGUAUAUUACCUGGUA [A22U A23G] it was 0.72; in that of GUCCUCUUUCACGUGCGCGUGGAAGAGAGAAGUGAACCAGAGAAACACACGUUGUCGUAUAUUACCUGGUA [A22G G56C], 0.137. Consider GUCCUCUUUCACGUGCGCGUGGAAGAGAGAAAUGAACCAGAGAAACACACGUUGUGGUAUAUUACCUGGUA [A22G G32A], for which the self-cleavage turned out to be 0.0872. Regarding GUCCUCUUUCACGUGCGCGUGGAAGAGAGAAUUGAACCAGAGAAACACACGUUGUGGUAUAUUACCUGGUA [A22G G32U], the self-cleavage amounted to 0.0605. On to GUCCUCUUUCACGUGCGCGUGUAAGAGAGAAGUGAUCCAGAGAAACACACGUUGUGGUAUAUUACCUGGUA [A22U A36U], for which the self-cleavage was determined as 0.58. The same measure for GUCCUCUUUCACGUGCGCGUGUAAGAGAUAAGUGAACCAGAGAAACACACGUUGUGGUAUAUUACCUGGUA [A22U G29U]: 0.071; for GUCCUCUUUCACGUGCGCGUGUAAGAGACAAGUGAACCAGAGAAACACACGUUGUGGUAUAUUACCUGGUA [A22U G29C]: 0.214; for GUCCUCUUUCACGUGCGCGUGGAAGAGAGAAGUGAACCAGAGAAACACACGUUGUGGAAUAUUACCUGGUA [A22G U58A]: 0.657.

Turning to GUCCUCUUUCACGUGCGCGUGUAAGAGAGAAGUGAACCAGAGAAACACACGUUGUGGUAUAUUACAUGGUA [A22U C66A], the self-cleavage amounted to 0.209. As to GUCCUCUUUCACGUGCGCGUGUAAGAGAGAAGUGAACCAGAGAAACACACGUUGUGGUAUAUUACGUGGUA [A22U C66G], the self-cleavage is 0.175. Take GUCCUCUUUCACGUGCGCGUGUAAGAGAGAAGUGAACCAGAGAAAAACACGUUGUGGUAUAUUACCUGGUA [A22U C46A]: the self-cleavage turned out to be 0.187. As to GUCCUCUUUCACGUGCGCGUGUAAGAGAGAAGUGAACCAGAGAAACACGCGUUGUGGUAUAUUACCUGGUA [A22U A49G], the self-cleavage amounted to 0.488. In the case of GUCCUCUUUCACGUGCGCGUGUAAGAGAGAAGUGAACCAGAGAAACACCCGUUGUGGUAUAUUACCUGGUA [A22U A49C] it was 0.146. The same measure for GUCCUCUUUCACGUGCGCGUGUAAGAGAGAAGUGAACCAGAGAAACACACGUUGUGGUUUAUUACCUGGUA [A22U A59U]: 0.143; for GUCCUCUUUCACGUGCGCGUGUAAGAGAGAAUUGAACCAGAGAAACACACGUUGUGGUAUAUUACCUGGUA [A22U G32U]: 0.0918; for GUCCUCUUUCACGUGCGCGUGUAAGAGAGAACUGAACCAGAGAAACACACGUUGUGGUAUAUUACCUGGUA [A22U G32C]: 0.123. The same measure for GUCCUCUUUCACGUGCGCGUGGAAGAGAGAAGUGAACCAUAGAAACACACGUUGUGGUAUAUUACCUGGUA [A22G G40U]: 0.181.

Regarding GUCCUCUUUCACGUGCGCGUGUAAGAGAGUAGUGAACCAGAGAAACACACGUUGUGGUAUAUUACCUGGUA [A22U A30U], the self-cleavage came out at 0.262. Turning to GUCCUCUUUCACGUGCGCGUGGAAGAGAGAAGUGAACCAGAGAAACACACGUUGGGGUAUAUUACCUGGUA [A22G U55G], the self-cleavage amounted to 0.33. The same measure for GUCCUCUUUCACGUGCGCGUGGAAGAGAGAAGUGAACCAGAGAAACACACGUUGUGGUAAAUUACCUGGUA [A22G U60A]: 0.949; for GUCCUCUUUCACGUGCGCGUGGAAGAGAGAAGUGAACCAGAGAAACACACAUUGUGGUAUAUUACCUGGUA [A22G G51A]: 1.05; for GUCCUCUUUCACGUGCGCGUGGAAGAGAGAAGUGAACCAGAGAAACACACUUUGUGGUAUAUUACCUGGUA [A22G G51U]: 0.957. In the case of GUCCUCUUUCACGUGCGCGUGGAAGAGAGAAGUGAACCAGAAAAACACACGUUGUGGUAUAUUACCUGGUA [A22G G42A] it was 0.143.

GUCCUCUUUCACGUGCGCGUGUAAGAGAGAAGUGAACCAGAGAAACACACGUUGUGGUAUAUUCCCUGGUA [A22U A64C]: the self-cleavage is 0.113. The same measure for GUCCUCUUUCACGUGCGCGUGUAACAGAGAAGUGAACCAGAGAAACACACGUUGUGGUAUAUUACCUGGUA [A22U G25C]: 0.143; for GUCCUCUUUCACGUGCGCGUGUAAAAGAGAAGUGAACCAGAGAAACACACGUUGUGGUAUAUUACCUGGUA [A22U G25A]: 0.149; for GUCCUCUUUCACGUGCGCGUGGAAGAGAGAAGUCAACCAGAGAAACACACGUUGUGGUAUAUUACCUGGUA [A22G G34C]: 1.52.

Turning to GUCCUCUUUCACGUGCGCGUGGAAGAGAGAAGUAAACCAGAGAAACACACGUUGUGGUAUAUUACCUGGUA [A22G G34A], the self-cleavage stood at 0.987.

As to GUCCUCUUUCACGUGCGCGUGGAAGAGAGAAGUUAACCAGAGAAACACACGUUGUGGUAUAUUACCUGGUA [A22G G34U], the self-cleavage is 1.22. In the case of GUCCUCUUUCACGUGCGCGUGGAAGAGAGAAGUGAACCAGAGAAACACACGUUGUGCUAUAUUACCUGGUA [A22G G57C] it was 0.141; in that of GUCCUCUUUCACGUGCGCGUGUAAGAGAGAAGUGAACCACAGAAACACACGUUGUGGUAUAUUACCUGGUA [A22U G40C], 0.122.

For the origin of these results see the RNAGym collection of RNA variant scans (doi:10.7554/elife.80360).
